Measurements published in patent US20240352438A1, “MEANS AND METHODS FOR DETOXIFYING OCHRATOXIN A” (DSM Austria GmbH, priority 2021, published 2024).
Where a chain is given by its changes, count along the chain named.

B1: 160 (protein)
chain: MTTRTRILTAFLSLLAANACAADAAPAAPHTVVLRAARMFDGASGKLVDHPQLTIVGNKIVRIAQGDKAEVPAGAEVVDLGDATLLPGFIDAHVHLSGQSSDNWYGDFFDNMMRFPAEQALYGAYYARITLEAGFTSVRDVGSTDWVALGLRNAIDAGKVPGPRMLVSNYAVGSTGGHADQDPIPPHKLPLAGPLQGVCNGPEECRAAVRYQIKYGANVIKFMPSGGVLSLSDPVDAPELSQDEMNAVIGESHAWGRKVAAHAHGDKAAKMAVAAGVDSIEHGSFIEDDTLRAMKAKNVYLVPTISAVAHVEEKIGTYPPVIAEKGRAAAAHLRQTFRHAVQIGVPIALGTDAGVGAHGSNAREFRYMVENGLTPAQALLAGTANAARLLGTFDRVGTLEAGKLADVVAVPGNPIADITVTERPLFVMKDGVVVRRDAVR
modifications: exemplary polypeptide
B2: 162 (protein)
chain: B1 chain with Y318F, G354A
modifications: exemplary polypeptide
B3: 232 (protein)
chain: B1 chain with D233Q, V308I, Y318F
modifications: exemplary polypeptide
B4: 163 (protein)
chain: B1 chain with V308I, G354A
modifications: exemplary polypeptide
B5: 166 (protein)
chain: B1 chain with A171P, I184V, V308I
modifications: exemplary polypeptide
B6: 168 (protein)
chain: B1 chain with A171P, V308A
modifications: exemplary polypeptide
B7: 167 (protein)
chain: B1 chain with A171P, I184V, V308I, Y318F, G354A
modifications: exemplary polypeptide
B8: 164 (protein)
chain: B1 chain with A171P, I184V, V308A, Y318F
modifications: exemplary polypeptide
B9: 165 (protein)
chain: B1 chain with A171P, I184V, Y318F
modifications: exemplary polypeptide
B10: 118 (protein)
chain: B1 chain with M113Q, V308I, Y318F
modifications: exemplary polypeptide
B11: 142 (protein)
chain: B1 chain with G142P, V308I, Y318F
modifications: exemplary polypeptide
B12: 93 (protein)
chain: B1 chain with V308I, Y318F, A329G
modifications: exemplary polypeptide
B13: 110 (protein)
chain: B1 chain with V308I, K314E, Y318F
modifications: exemplary polypeptide
B14: 117 (protein)
chain: B1 chain with F108Y, V308I, Y318F
modifications: exemplary polypeptide
B15: 126 (protein)
chain: B1 chain with H253E, D278R, V308I, Y318F
modifications: exemplary polypeptide
B16: 100 (protein)
chain: B1 chain with F109L, V308I, Y318F
modifications: exemplary polypeptide
B17: 109 (protein)
chain: B1 chain with V308I, K314Q, Y318F
modifications: exemplary polypeptide
B18: 101 (protein)
chain: B1 chain with M112I, V308I, Y318F
modifications: exemplary polypeptide
B19: 135 (protein)
chain: B1 chain with Y300C, V308I, Y318F, L389C
modifications: exemplary polypeptide
B20: 134 (protein)
chain: B1 chain with N111D, V308I, Y318F
modifications: exemplary polypeptide
B21: 149 (protein)
chain: B1 chain with A179T, V308I, Y318F
modifications: exemplary polypeptide
B22: 104 (protein)
chain: B1 chain with I184F, V308I, Y318F
modifications: exemplary polypeptide
B23: 102 (protein)
chain: B1 chain with M112W, V308I, Y318F
modifications: exemplary polypeptide
B24: 133 (protein)
chain: B1 chain with A307V, V308I, Y318F
modifications: exemplary polypeptide
B25: 99 (protein)
chain: B1 chain with F109V, V308I, Y318F
modifications: exemplary polypeptide
B26: 129 (protein)
chain: B1 chain with S100C, V308I, T317C, Y318F
modifications: exemplary polypeptide

Assay: Enzymatic activity comparison: activity remaining after 65° C. for 10 min at pH 6.0, relative to SEQ ID NO: 1
Assay type: physicochemical
Conditions: not given
Experimental: To compare the temperature behavior and thermostability of selected enzymes to one another, enzyme was incubated at 65° C. for 10 min at pH 6.0. The enzymatic activity remaining after incubation was compared to the remaining activity of the enzyme of SEQ ID NO: 1 after incubation, the latter being set to 100%, see Table 16.

Molecule | Enzymatic activity remaining after incubation, compared to SEQ ID NO: 1 (set to 100%) [%]
B1 | 30
B2 | 7
B3 | 25
B4 | 17
B5 | 37
B6 | 48
B7 | 26
B8 | 15
B9 | 33

Assay: OTA detoxification activity assay (specific activity, fluorescence reduction ex/em 390/450 nm)
Assay type: biochemical
Conditions: pH 6.0; SEQ ID NO: 1 = 100%
Method in brief: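 Recombinant enzyme preparation with 200 ng/mL OTA in 100 mM sodium phosphate, at pH 6.0 and pH 7.5, 37° C. Degradation followed as the fall in fluorescence at ex/em 390/450 nm. Specific activity taken from the initial linear slope; one unit degrades 1 μmol OTA per min at a starting OTA of […].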

Molecule | Specific OTA detoxification activities in % compared to the enzyme of SEQ ID NO: 1, pH 6.0 [%]
B1 | 78
B10 | 26
B2 | 191
B4 | 145
B5 | 72
B11 | 34
B6 | 41
B12 | 20
B7 | 54
B13 | 33
B14 | 40
B15 | 63
B16 | 43
B17 | 74
B18 | 82
B19 | 68
B20 | 41
B21 | 30
B22 | 102
B23 | 50
B24 | 23
B8 | 29
B25 | 52
B26 | 51
B9 | 46

Same assay, conditions: pH 7.5; SEQ ID NO: 1 = 100%

Molecule | Specific OTA detoxification activities in % compared to the enzyme of SEQ ID NO: 1, pH 7.5 [%]
B1 | 84
B10 | 22
B2 | 124
B4 | 112
B5 | 68
B11 | 8
B6 | 62
B12 | 17
B7 | 73
B13 | 48
B14 | 80
B15 | 75
B16 | 28
B17 | 107
B18 | 89
B19 | 70
B20 | 52
B21 | 13
B22 | 71
B23 | 89
B24 | 27
B8 | 63
B25 | 58
B26 | 83
B9 | 71
